In the Human Domainome abundance scans (Beltran et al. 2025):
± gives the uncertainty stated by the source.

B1: Transcription elongation factor A N-terminal and central domain-containing protein, residues 30 to 77; numbered along this chain, Q8N8B7 (parent)
chain: LTELETIYVTKEHLQETDVVRAVYRVLKNCPSVALKKKAKCLLSKWKA

Variants of: B1
Assay: abundance fitness (aPCA) (normalised: wild type 0, dead -1); higher = more abundant; growth selection in yeast, the domain comes from the species named
Conditions: Homo sapiens

Variant	abundance fitness
LTELETIYVTKEHLQETDVVRAVYRVLKNCPSVALKWKAKCLLSKWKA	-0.68 ± 0.11
LTELETIYVTKEHLQETDVVRAVYRVLKNCPSVALKHKAKCLLSKWKA	-0.609 ± 0.19
LTELETIYVTKEHLQETDVVRAVYRVLKNCPSVALKGKAKCLLSKWKA	-0.578 ± 0.081
LTELETIYVTKEHLQETDVVRAVYRVLKNCPSVALKCKAKCLLSKWKA	-0.895 ± 0.12
LTELETIYVTKEHLQETDVVRAVYRVLKNCPSVALKEKAKCLLSKWKA	-0.248 ± 0.1
LTELETIYVTKEHLQETDVVRAVYRVLKNCPSVALKPKAKCLLSKWKA	-1.02 ± 0.15
LTELETIYVTKEHLQETDVVRAVYRVLKNCPSVALKQKAKCLLSKWKA	-0.553 ± 0.17
LTELETIYVTKEHLQETDVVRAVYRVLKNCPSVALKRKAKCLLSKWKA	0.023 ± 0.065
LTELETIYVTKEHLQETDVVRAVYRVLKNCPSVALKTKAKCLLSKWKA	-0.574 ± 0.1
LTELETIYVTKEHLQETDVVRAVYRVLKNCPSVALKIKAKCLLSKWKA	-0.337 ± 0.15
LTELETIYVTKEHLQETDVVRAVYRVLKNCPSVALKSKAKCLLSKWKA	-0.346 ± 0.092
LTELETIYVTKEHLQETDVVRAVYRVLKNCPSVALKNKAKCLLSKWKA	-0.155 ± 0.17
LTELETIYVTKEHLQETDVVRAVYRVLKNCPSVALKAKAKCLLSKWKA	-0.365 ± 0.086
LTELETIYVTKEHLQETDVVRAVYRVLKNCPSVASKKKAKCLLSKWKA	-0.8 ± 0.37
LTELETIYVTKEHLQETDVVRAVYRVLKNCPSVAFKKKAKCLLSKWKA	-0.293 ± 0.28
LTELETIYVTKEHLQETDVVRAVYRVLKNCPSVALKKLAKCLLSKWKA	-0.024 ± 0.1
LTELETIYVTKEHLQETDVVRAVYRVLKNCPSVALKKIAKCLLSKWKA	-0.266 ± 0.16
LTELETIYVTKEHLQETDVVRAVYRVLKNCPSVALKKHAKCLLSKWKA	-0.529 ± 0.14
LTELETIYVTKEHLQETDVVRAVYRVLKNCPSVALKKWAKCLLSKWKA	-0.252 ± 0.12
LTELETIYVTKEHLQETDVVRAVYRVLKNCPSVALKKYAKCLLSKWKA	-0.265 ± 0.18
LTELETIYVTKEHLQETDVVRAVYRVLKNCPSVALKKFAKCLLSKWKA	-0.193 ± 0.31
LTELETIYVTKEHLQETDVVRAVYRVLKNCPSVALKKDAKCLLSKWKA	-0.885 ± 0.35
LTELETIYVTKEHLQETDVVRAVYRVLKNCPSVALKKRAKCLLSKWKA	-0.061 ± 0.077
LTELETIYVTKEHLQETDVVRAVYRVLKNCPSVALKKPAKCLLSKWKA	-0.679 ± 0.23
LTELETIYVTKEHLQETDVVRAVYRVLKNCPSVALKKEAKCLLSKWKA	-0.933 ± 0.2
LTELETIYVTKEHLQETDVVRAVYRVLKNCPSVALKKQAKCLLSKWKA	-0.645 ± 0.19
LTELETIYVTKEHLQETDVVRAVYRVLKNCPSVALKKGAKCLLSKWKA	-0.209 ± 0.074

Variant	abundance fitness
LTELETIYVTKEHLQETDVVRAVYRVLKNCPSVALKKNAKCLLSKWKA	0.201 ± 0.41
LTELETIYVTKEHLQETDVVRAVYRVLKNCPSVALKKCAKCLLSKWKA	0.099 ± 0.17
LTELETIYVTKEHLQETDVVRAVYRVLKNCPSVALKKTAKCLLSKWKA	-0.11 ± 0.24
LTELETIYVTKEHLQETDVVRAVYRVLKNCPSVALKKAAKCLLSKWKA	0.023 ± 0.097
LTELETIYVTKEHLQETDVVRAVYRVLKNCSSVALKKKAKCLLSKWKA	0.263 ± 0.071
LTELETIYVTKEHLQETDVVRAVYRVLKNCWSVALKKKAKCLLSKWKA	0.382 ± 0.075
LTELETIYVTKEHLQETDVVRAVYRVLKNCRSVALKKKAKCLLSKWKA	0.188 ± 0.062
LTELETIYVTKEHLQETDVVRAVYRVLKNCTSVALKKKAKCLLSKWKA	0.341 ± 0.077
LTELETIYVTKEHLQETDVVRAVYRVLKNCYSVALKKKAKCLLSKWKA	-0.021 ± 0.092
LTELETIYVTKEHLQETDVVRAVYRVLKNCVSVALKKKAKCLLSKWKA	0.337 ± 0.062
LTELETIYVTKEHLQETDVVRAVYRVLKNCPSVALFKKAKCLLSKWKA	-0.007 ± 0.13
LTELETIYVTKEHLQETDVVRAVYRVLKNCPSVALNKKAKCLLSKWKA	-0.833 ± 0.19
LTELETIYVTKEHLQETDVVRAVYRVLKNCPSVALVKKAKCLLSKWKA	0.066 ± 0.075
LTELETIYVTKEHLQETDVVRAVYRVLKNCPSVALPKKAKCLLSKWKA	-0.211 ± 0.13
LTELETIYVTKEHLQETDVVRAVYRVLKNCPSVALAKKAKCLLSKWKA	-0.063 ± 0.073
LTELETIYVTKEHLQETDVVRAVYRVLKNCPSVALLKKAKCLLSKWKA	-0.137 ± 0.079
LTELETIYVTKEHLQETDVVRAVYRVLKNCPSVALQKKAKCLLSKWKA	-0.063 ± 0.12
LTELETIYVTKEHLQETDVVRAVYRVLKNCPSVALGKKAKCLLSKWKA	-0.109 ± 0.062
LTELETIYVTKEHLQETDVVRAVYRVLKNCPSVALHKKAKCLLSKWKA	-0.633 ± 0.18
LTELETIYVTKEHLQETDVVRAVYRVLKNCPSVALYKKAKCLLSKWKA	0.049 ± 0.14
LTELETIYVTKEHLQETDVVRAVYRVLKNCPSVALWKKAKCLLSKWKA	0.113 ± 0.094
LTELETIYVTKEHLQETDVVRAVYRVLKNCPSVALMKKAKCLLSKWKA	0.085 ± 0.1
LTELETIYVTKEHLQETDVVRAVYRVLKNCPSVALCKKAKCLLSKWKA	-0.225 ± 0.097
LTELETIYVTKEHLQETDVVRAVYRVLKNCPSVALEKKAKCLLSKWKA	-1.32 ± 0.24
LTELETIYVTKEHLQETDVVRAVYRVLKNCPSVALIKKAKCLLSKWKA	-0.152 ± 0.15
LTELETIYVTKEHLQETDVVRAVYRVLKNCPSVALSKKAKCLLSKWKA	-0.609 ± 0.097
LTELETIYVTKEHLQETDVVRAVYRVLKNCPSVALKKKHKCLLSKWKA	-0.553 ± 0.27
